What is called Km is the concentration of substrate that gives half-maximal velocity.

Chain of Ala445-hGDH2 (Homo sapiens; S498A) (chain, as listed by the source S498A): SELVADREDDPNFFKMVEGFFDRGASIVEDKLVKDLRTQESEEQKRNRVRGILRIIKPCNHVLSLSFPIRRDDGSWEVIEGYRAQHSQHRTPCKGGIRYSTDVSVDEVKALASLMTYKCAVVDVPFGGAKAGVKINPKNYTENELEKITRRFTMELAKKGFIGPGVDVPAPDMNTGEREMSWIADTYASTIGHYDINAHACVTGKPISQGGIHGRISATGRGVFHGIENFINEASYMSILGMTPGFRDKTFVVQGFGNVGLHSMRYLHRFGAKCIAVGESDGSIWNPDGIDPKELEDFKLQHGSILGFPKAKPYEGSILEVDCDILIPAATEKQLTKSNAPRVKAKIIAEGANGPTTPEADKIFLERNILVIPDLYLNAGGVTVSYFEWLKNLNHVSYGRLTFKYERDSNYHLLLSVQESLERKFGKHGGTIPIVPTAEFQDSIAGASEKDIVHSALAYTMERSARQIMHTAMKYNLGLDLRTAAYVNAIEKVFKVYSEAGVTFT
Chain of Ser445-hGDH2 (Homo sapiens) (chain, as listed by the source): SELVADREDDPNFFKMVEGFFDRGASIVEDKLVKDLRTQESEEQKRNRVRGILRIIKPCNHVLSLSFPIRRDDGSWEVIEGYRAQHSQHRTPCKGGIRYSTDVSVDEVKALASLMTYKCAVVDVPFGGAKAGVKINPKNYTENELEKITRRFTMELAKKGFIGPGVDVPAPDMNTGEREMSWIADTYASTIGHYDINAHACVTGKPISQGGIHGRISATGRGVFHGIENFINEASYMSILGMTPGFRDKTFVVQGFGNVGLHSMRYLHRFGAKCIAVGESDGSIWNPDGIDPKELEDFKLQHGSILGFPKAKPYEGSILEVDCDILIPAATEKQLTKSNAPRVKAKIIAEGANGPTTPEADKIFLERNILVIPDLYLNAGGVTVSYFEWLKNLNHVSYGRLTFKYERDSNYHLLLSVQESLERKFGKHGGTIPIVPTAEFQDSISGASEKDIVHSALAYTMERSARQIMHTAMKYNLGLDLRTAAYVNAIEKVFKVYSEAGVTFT

The test system of the data set is N. Put plainly: purified protein, by the assay type.
On to Ala445-hGDH2 (Homo sapiens; S498A), for which the Km is on record as 21.36 ± 3.56 mM.

As for Ser445-hGDH2 (Homo sapiens), the Km worked out at 17.05 ± 2.01 mM.

On to hGDH1 (Homo sapiens), for which the Km is 13.39 ± 0.72 mM.

Source of the values: patent publication US8361728B2, “Method for diagnosis of glutamate dehydrogenase disorders” (priority 2008, dated 2013).
